US20120121688A1, “PREVENTATIVE OR THERAPEUTIC AGENT AND METHOD FOR IMMUNE DISEASE” (Rinken, priority 2006, published 2012)

Columns and labels:
B220+ cells (B cells) = assay: Cytokine production by whole spleen cells co-cultured with B220+ cells (B cells) from spleen of administered mice (ELISA); format: cell-based, BDF1 mice; conditions: B220+ cells from mice given 2 μg α-GalCer/mouse i.p., added to whole spleen cells; FIG. 1
Procedure: Aqueous α-GalCer or αGC liposome (International Publication WO2005/120574) at 2 μg α-GalCer/mouse was intraperitoneally administered to BDF1 mice, and after 24 hours, spleen was removed. The spleen was homogenized with a slide glass to prepare a cell suspension. Subsequently, anti-CD11c antibody magnetic beads (Miltenyi) were added thereto and CD11c^+ cells (DC) were prepared using a magnet. B220^+ cells (B cells) were prepared using anti-B220 mAb magnetic beads (Miltenyi) from the remaining cells which had not been bound to the magnet. Then, 2.5×10^5 whole spleen cells from the normal BDF1 mouse and 1×10^5 DC or 3×10^5 B cells derived from the spleen in the BDF1 mouse administered with aqueous α-GalCer or αGC liposome, suspended in 200 μL of culture medium were added in one well in a 96-well U bottom culture plate, and cultured in an incubator containing 5% CO2 at 37° C. Levels of cytokines, IFN-γ, IL-4 and IL-10 in culture supernatants after 24, 48 and 72 hours were measured by ELISA (FIG. 1).

[1] = test system: natural type Cryj1-specific and recCryj1/2-specific antibody titers; assay: In vivo antibody production by immunization with recCryj1/2 protein or natural type Cryj1; design: species or system BALB/c×DBA/2F1 (BDF1) mice
Procedure: BALB/c×DBA/2F1 (BDF1) mice (female, 8 weeks of age, five mice in one group, Charles River) were intraperitoneally immunized with 10 μg of purified Cryj1 (natural type Cryj1, Hayashibara Biochemical Laboratories Inc.) derived from the cedar pollen, or 5 μg or 10 μg of the recCryj1/2 protein mixed with 2 mg of aluminium hydroxide gel adjuvant (RIKEN) at the start of the experiment (0day) and on the 14th day. The boost immunization with 1 μg of natural type Cryj1 or 5 μg or 10 μg of the recCryj1/2 protein was given to each mouse on the 41st day. Furthermore, on the 81st day, the boost immunization with 1 μg of natural type Cryj1 mixed with 2 mg of aluminium hydroxide gel was given to all mice. Blood samples were collected from orbital venous plexus on the 13th, 28th, 55th, 76th and 95th days, and levels of natural type Cryj1-specific antibody titers and recCryj1/2-specific IgE antibody titers were measured. […] The recCryj1/2-specific IgE antibody titers on the 76th day were increased in mice immunized with the recCryj1/2 fusion protein (FIG. 8). Meanwhile, on the 28th and 55th day, natural type Cryj1-specific IgG1 and IgG2a antibody titers were increased in both mice immunized with natural type Cryj1 and recCryj1/2 (FIG. 9).

[2] = test system: natural type Cryj1-specific IgE antibody; assay: Inhibitory capacity of recCryj1/2 protein for in vivo IgE antibody production; design: species or system BDF1 mice; conditions: FIG. 10
Procedure: BDF1 mice (female, 8 weeks of age, Charles River) were intraperitoneally immunized with 5 μg of purified Cryj1 (natural type Cryj1, Hayashibara Biochemical Laboratories Inc.) derived from the cedar pollen mixed with 2 mg of aluminium hydroxide gel adjuvant (RIKEN) at the start of the experiment (0day) and on the 14th day. On the 50th day, the boost immunization with 1 μg of natural type Cryj1 was given. Meanwhile, the blood samples were collected from the orbital venous plexus on the 14th, 29th and 57th days, and the levels of the natural type Cryj1-specific IgE antibody in serum were measured. Subsequently, on the 99th day, the levels of the natural type Cryj1-specific IgE antibody were measured in all mice, and the mice were divided into three group (5 mice in one group) so that average values of antibody titers were equal among the groups. On the 106th, 113th and 120th days, the recCryj1/2 protein (0.2 μg), the recCryj1/2 protein (2 μg), or saline was administered three times, and further the boost immunization with 1 μg of natural type Cryj1 was given on the 133rd day. The blood samples were collected from the orbital venous plexus on the 140th and 160th days, and the levels of the natural type Cryj1-specific IgE antibody in serum were measured.

Molecule	IFN-γ production (B220+ cells (B cells))	IL-4 production (B220+ cells (B cells))	IL-10 production (B220+ cells (B cells))	natural type Cryj1-specific IgG1 antibody titers ([1]; 28th and 55th day, FIG. 9)	natural type Cryj1-specific IgG2a antibody titers ([1]; 28th and 55th day, FIG. 9)	recCryj1/2-specific IgE antibody titers ([1]; 76th day, FIG. 8)	increase of the natural type Cryj1-specific IgE antibody after immunization with adjuvant and natural type Cryj1 on the 81st day ([1]; 94th day, mice earlier immunized with 5 or 10 μg, FIG. 7)	natural type Cryj1-specific IgE antibody titers ([1]; days 28, 55 and 76, i.p. immunization with aluminium hydroxide gel days 0 and 14, boost day 41, FIG. 7)	natural type Cryj1-specific IgE antibody titers versus saline group ([2]; 127th day, 0.2 or 2 μg administered on days 106, 113, 120 to Cryj1-sensitized mice)	natural type Cryj1-specific IgE antibody titers after the boost immunization (133rd day) ([2]; 160th day, increased in saline group)
CCCCCCCCCCCCCCCCCCCCCCCCCC(=O)N[C@@H](CO[C@H]1O[C@H](CO)[C@H](O)[C@H](O)[C@H]1O)[C@H](O)[C@H](O)CCCCCCCCCCCCCC [aqueous α-GalCer, α-galactosylceramide]	not detected	not detected	not detected							
recCryj1/2 protein: His-tagged recombinant fusion protein of Cryj1 mature protein and Cryj2 mature protein, SEQ ID NO:9 (protein, His tag) MAHHHHHHSAALEVLFQGPSDNPIDSCWRGDSNWAQNRMKLADCAVGFGSSTMGGKGGDLYTVTNSDDDPVNPAPGTLRYGATRDRPLWIIFSGNMNIKLKMPMYIAGYKTFDGRGAQVYIGNGGPCVFIKRVSNVIIHGLHLYGCSTSVLGNVLINESFGVEPVHPQDGDALTLRTATNIWIDHNSFSNSSDGLVDVTLSSTGVTISNNLFFNHHKVMLLGHDDAYSDDKSMKVTVAFNQFGPNCGQRMPRARYGLVHVANNNYDPWTIYAIGGSSNPTILSEGNSFTAPNESYKKQVTIRIGCKTSSSCSNWVWQSTQDVFYNGAYFVSSGKYEGGNIYTKKEAFNVENGNATPQLTKNAGVLTCSLSKRCRKVEHSRHDAINIFNVEKYGAVGDGKHDCTEAFSTAWQAACKKPSAMLLVPGNKKFVVNNLFFNGPCQPHFTFKVDGIIAAYQNPASWKNNRIWLQFAKLTGFTLMGKGVIDGQGKQWWAGQCKWVNGREICNDRDRPTAIKFDFSTGLIIQGLKLMNSPEFHLVFGNCEGVKIIGISITAPRDSPNTDGIDIFASKNFHLQKNTIGTGDDCVAIGTGSSNIVIEDLICGPGHGISIGSLGRENSRAEVSYVHVNGAKFIDTQNGLRIKTWQGGSGMASHIIYENVEMINSENPILINQFYCTSASACQNQRSAVQIQDVTYKNIRGTSATAAAIQLKCSDSMPCKDIKLSDISLKLTSGKIASCLNDNANGYFSGHVIPACKNLSPS				increased	increased	increased	scarcely observed	not increased at all	higher	decreased
